Source: PMC2137827
Several values for one entry are separate records, joined by “and”; a condition that tells them apart may be missing. Equal values may be shown once. Read-outs that look alike come from different tables or passages of the source.

Tests used:
[1] = target: IQGAP1 (native, from bovine adrenal) (bovine (endogenous in adrenal)); experiment: co-purification with quantitative immunoblot
[2] = target: IQGAP1 (native, from bovine adrenal) (bovine (endogenous in adrenal)); experiment: co-purification with quantitative immunoblot; remark: listed apart in the source
[3] = target: F-actin assembled from purified rabbit skeletal muscle actin (rabbit) (UniProt P68135); experiment: co-sedimentation
[4] = target: IQGAP1 (native, from bovine adrenal) (bovine (endogenous in adrenal)); experiment: AUC

Substance	stoichiometry N (mol calmodulin per mol 190K) [1]	stoichiometry N (mol calmodulin per mol 190K) [2]	percent of IQGAP1 able to bind F-actin (other experiments) [3] [%]	stoichiometry N (subunits per molecule) [4]
Calmodulin co-purifying with native IQGAP1 from bovine adrenal (from UniProt P62157 1-149) (natural protein)	0.067 and 0.042 and 0.026	0.05		
IQGAP1 (native, from bovine adrenal) (natural protein)			85	2
